Reference: PMC6913129
Read-outs that look alike come from different tables or passages of the source.

T1: IFIT1 (UniProt P09914 1-478)
T1 sequence: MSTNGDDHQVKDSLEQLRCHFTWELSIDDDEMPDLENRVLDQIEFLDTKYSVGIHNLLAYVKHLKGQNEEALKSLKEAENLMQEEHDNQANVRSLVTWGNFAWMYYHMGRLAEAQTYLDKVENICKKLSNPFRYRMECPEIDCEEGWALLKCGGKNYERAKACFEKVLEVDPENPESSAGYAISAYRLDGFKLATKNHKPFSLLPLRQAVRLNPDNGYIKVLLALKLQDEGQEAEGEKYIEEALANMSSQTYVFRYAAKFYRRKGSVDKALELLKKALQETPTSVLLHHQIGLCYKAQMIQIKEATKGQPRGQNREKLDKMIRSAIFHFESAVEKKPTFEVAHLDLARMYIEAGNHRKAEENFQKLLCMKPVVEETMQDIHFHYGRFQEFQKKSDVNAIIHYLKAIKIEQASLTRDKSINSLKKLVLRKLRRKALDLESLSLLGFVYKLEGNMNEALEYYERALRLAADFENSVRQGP

T2: IFIT5 (UniProt Q13325 1-482)
T2 sequence: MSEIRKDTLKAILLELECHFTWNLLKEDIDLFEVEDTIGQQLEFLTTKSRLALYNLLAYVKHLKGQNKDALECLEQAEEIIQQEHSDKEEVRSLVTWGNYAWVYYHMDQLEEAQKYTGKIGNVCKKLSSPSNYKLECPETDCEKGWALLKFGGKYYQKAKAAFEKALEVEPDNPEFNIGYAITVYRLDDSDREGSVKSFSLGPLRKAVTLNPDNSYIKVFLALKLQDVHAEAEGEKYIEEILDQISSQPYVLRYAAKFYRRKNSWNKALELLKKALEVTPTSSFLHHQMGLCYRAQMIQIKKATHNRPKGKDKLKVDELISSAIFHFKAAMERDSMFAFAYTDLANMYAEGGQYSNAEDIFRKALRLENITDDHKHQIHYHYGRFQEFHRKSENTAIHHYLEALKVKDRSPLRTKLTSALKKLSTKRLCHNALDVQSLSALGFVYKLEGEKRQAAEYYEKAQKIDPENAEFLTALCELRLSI


How the values were obtained:
Experiment in all cases: BLI
IFIT1 = biological target: T1, IFIT1
IFIT5 [1] = biological target: T2, IFIT5
IFIT5 [2] = biological target: T2, IFIT5; remark: listed apart in the source

Binder	Kd (IFIT1) [nM]	also measured
AGGAGACCGGCCUCGA (ssRNA, 5' m7GpppAm cap 1 (2'-O-methyl A1)) [m7GpppAmG-16ntRNA]	44	
AGGAGACCGGCCUCGA (ssRNA, 5' NAD+ cap (first A is the NAD adenosine, inferred)) [NAD+-16ntRNA]		binding result (IFIT5 [1]): binds
AGGAGACCGGCCUCGA (ssRNA, 5' triphosphate) [pppA-16ntRNA]	23.4	
AGGAGACCGGCCUCGA (ssRNA, 5' NADH cap (first A is the NADH adenosine, inferred)) [NADH-16ntRNA]		binding result (IFIT5 [2]): binds
AGGAGACCGGCCUCGA (ssRNA, 5' m7GpppA cap 0) [m7GpppAG-16ntRNA (m7GpppA)]	6.12	
AGGAGACCGGCCUCGA (ssRNA, 5' GpppA cap (unmethylated; cap G not in strand)) [GpppA-16ntRNA]	2.65	
